From patent US20260015434A1, “ANTIBODY MATERIALS AND METHODS TARGETING MICROBIAL POLYSACCHARIDES” (priority 2022, published 2026)
Residue numbers refer to the chain shown, from its start. In names and notes the source's numbering stands.

Legend:
TG10 binding to PNAG 0 = assay: Monosaccharide inhibition of antibody binding on the array
Protocol: (§1) This example describes how TG10 binding is inhibited by glucosamine. For small molecule inhibition assays, arrays were blocked and washed as previously described. Antibodies F598 and TG10 were diluted to 5 μg/mL in binding buffer. 20 mM N-Acetyl glucosamine and 20 mM glucosamine in binding buffer was prepared and an equal volume of the monosaccharide solutions were added to the diluted antibodies. Antibody/monosaccharide samples were incubated at room temperature for 30 min with rotation prior to being applied to the array. For the TG10 glucosamine IC50 inhibition assay, TG10 was diluted to 30 nM in binding buffer. A pH adjusted 1M stock of Glucosamine.HCl in PBS with 3% BSA (pH 7.2) was prepared and a serial dilution in binding buffer was made. Equal volumes of TG10 and each of the serial diluted glucosamine stocks was combined. Antibody/monosaccharide samples were incubated at RT for 30 min with rotation prior to being applied to the array.
(§2) Monosaccharide inhibition of both TG10 and F598 was studied on the array. The antibodies were incubated with 10 mM glucosamine, galactosamine, N-acetyl glucosamine, and N-acetyl galactosamine and then applied to the array. The binding of TG10 with PNAG 0 and of F598 with PNAG 31 were analyzed with and without monosaccharide inhibitors (FIGS. 5A-5D). Glucosamine had the greatest effect on TG10 binding to PNAG 0, reducing signal intensity by 94% at 10 mM […] (100% at 100 mM […]). As expected, N-acetyl glucosamine inhibited F598 binding with PNAG 31, reducing RFU by 74% at 10 mM GlcNAc and 99% at 100 mM GlcNAc. […] To further illuminate the small molecule inhibition properties of glucosamine on TG10, IC50 values for glucosamine was determined by titrating GlcNH2 with TG10.

[1] = system: F598 binding with PNAG 31; assay: as above
Protocol: as §1, §2

[2] = biological target: TG10 binding to PNAG 0, PNAG 1, and PNAG 16; assay: TG10 glucosamine IC50 inhibition assay on the array; details: three best binding conjugates on the array (PNAG 0, PNAG 1, PNAG 16); TG10 diluted to 30 nM
Protocol: as §1
Monosaccharide inhibition of both TG10 and F598 was studied on the array. […] The binding of TG10 with PNAG 0 and of F598 with PNAG 31 were analyzed with and without monosaccharide inhibitors (FIGS. 5A-5D). […] To further illuminate the small molecule inhibition properties of glucosamine on TG10, IC50 values for glucosamine was determined by titrating GlcNH2 with TG10.

[3] = biological target: PNAG 0 (fully deacetylated glucosamine pentasaccharide conjugate); assay: Glycan microarray binding / apparent KD
Protocol: (§3) Neoglycoprotein (NGP) microarray fabrication was performed as follows. Several NGP microarrays were constructed as previously described. Two large arrays (8 duplicate arrays per slide) composed of 815 and 870 neoglycoproteins, glycoproteins, glycopeptide conjugates, and controls were constructed and used for the experiments in this report. Additionally, a PNAG-focused array (16 duplicates per slide) with 49 array components was fabricated and used to determine apparent KD values. Array component parent stocks were diluted to 125-200 μg/mL into print buffer (1×PBS buffer with 2.5% (v/v) glycerol, 0.0005% (v/v) Triton-X 100, 0.0005 μg/mL soluble print dye 0.05 μg/mL Atto 532 (Sigma 06699). Formulated components were printed in duplicate onto 2D-Epoxy functionalized glass slides (Poly-An #104-00-221) or SuperEpoxy 2 microarray slides (ArrayIt) using an Arrayit NanoPrint LM60 arrayer at 60% humidity. Following the print, slides were scanned in a microarray fluorescence scanner (Innopsys, InnoScan 1100 AL) to validate that array components were successfully deposited onto the slide surface. Binding profiles for a representative set of lectins and antibodies were used as QC for each printed microarray batch. The printed NGP microarrays were stored under vacuum at −20° C.
(§4) Antibody selectivity and apparent KD were determined using a NGP microarray. A pre-assay scan was performed to control for missing features. Selectivity and affinity of most mAbs were measured on the full array. A focused array was used to acquire an apparent KD measurement. A slide module (8 well for full array and 16-well for focused array) was mounted onto each slide and blocking buffer (3% BSA in PBS, pH 7.4) was applied to each well of the array. Blocking was performed overnight at 4° C. mAbs were serial diluted in binding buffer (1% BSA in PBST, pH 7.4). Following the block, wells were washed 4× with wash buffer (PBST, PBS with 0.05% tween-20). Primary mAb incubation was performed for 2.5 hours at 37° C. The wells were washed 5× with wash buffer. A CY3-labeled secondary antibody specific for the Fc portion of human IgG was diluted 500 fold into binding buffer and added to each array well (Jackson ImmunoResearch, 109-165-098). Secondary mAb incubation was performed for 1.5 hours at 37° C. Wells were washed 5× with wash buffer. Slides were removed from the slide module and submerged in wash buffer for 5 minutes. Washed slides were dried by centrifugation @ 1000×g in a centrifuge quipped with a swing bucket rotor. Fluorescent scans were obtained at multiple PMT values to maximize dynamic range. Raw data was analyzed using GenePix 7.0 software as previously described. Selectivity profiles and apparent KD curves were plotted in excel and Graphpad Prism. Apparent Kos were determined using one-site specific binding algorithm in Graphpad Prism.

[4] = biological target: PNAG 1 (glucosamine tetrasaccharide with an N-acetyl glucosamine at the reducing end); assay: Glycan microarray apparent KD; type: binding; details: PNAG 1 conjugate on the microarray
Protocol: as §3, with “Binding profiles for a representative set of lectins and antibodies were used as QC for each printed microarray batch. The printed NGP microarrays were stored under vacuum at −20° C.” left out
(§5) Antibody selectivity and apparent KD were determined using a NGP microarray. […] Selectivity and affinity of most mAbs were measured on the full array. […] Raw data was analyzed using GenePix 7.0 software as previously described. […]

[5] = biological target: PNAG 16 (glucosamine tetrasaccharide with an N-acetyl glucosamine at the terminal end); assay: Glycan microarray apparent KD; type: binding; details: PNAG 16 conjugate on the microarray
Protocol: as §3, with “Binding profiles for a representative set of lectins and antibodies were used as QC for each printed microarray batch. The printed NGP microarrays were stored under vacuum at −20° C.” left out
as §5

S. epidermidis biofilms = assay: S. epidermidis biofilm staining, confocal microscopy; type: cell-based, Staphylococcus epidermidis; details: fluorescently labeled antibodies at 5 μg/ml, fixed 20 hr biofilms
Protocol: For antibody labeling, recombinantly expressed antibodies were labeled with fluorescent dyes using Invitrogen antibody dye labeling kits. Concentration and labeling efficiency was confirmed using nanodrop. For S. epidermidis biofilm formation and confocal microscopy, Staphylococcus epidermidis (Winslow and Winslow) Evans ATCC 14990 was resuspended and cultured on tryptic soy broth agar plates according to ATCC recommended procedures. Single colonies were picked into 5 mL Tryptic Soy Broth (TSB) supplemented with 0.25% glucose (BD™ TSB) and bacteria were cultured overnight at 37 C with shaking (200 RPM). The overnight culture was diluted 1:100 into aerated TSB26. 400 μl (microliters) of the aerated culture was pipetted into 8-well chambered coverglass lab-tek II system suitable for confocal microscopy. Biofilms were allowed to mature for 20 hrs @37C without agitation. Mature films were washed 2×500 μl PBS to remove planktonic bacteria. The films were fixed in 4% paraformaldehyde in PBS for 30 minutes, washed 2×500 μl PBS and stained with fluorescently labeled antibodies diluted to 5 μg/ml. The labeled films were then washed 2×500 μl PBS and then stained for 10 minutes with Hoechst stain @ 10 μg/ml. The films were washed a final time and kept under PBS for imaging. […]

[6] = system: Staphylococcus epidermidis (ATCC 35984) suspension culture; assay: Labeled antibody incubation with suspension cultures of microorganisms; type: cell-based; details: Alexa Fluor 488 labeled TG10; data not shown
[7] = system: S. aureus ATCC 29213 cells; assay: Binding to planktonic S. aureus, fluorescence microscopy; type: cell-based; details: labeled mAb, 20 μg/mL, fixed planktonic cells
Protocol: (§6) TG10 binding was evaluated in the PNAG producing strains of S. aureus ATCC 29213 and Xen 36 following overnight culturing with shaking in TSB and TB, respectively. The cells were pelleted, fixed in 4% paraformaldehyde and coated on glass chips. The plated cells were extensively washed followed by incubation with 488-labeled TG10 or 488-labeled F598 prior fluorescent microscopy. For evaluating TG10 and F598 binding with S. aureus, S. aureus […] and Xen 36 were grown in TSB and LB overnight, respectively. Cells were pelleted and fixed in 4% paraformaldehyde. Cells were calibrated to OD 0.5. 100 μl suspension were used for each sample. Each sample were pelleted and resuspended in 20 μg/mL mAb TG10, F598 or both. After shaking for 2 hours under ambient temperature, cells were pelleted, washed and transferred to glass chips and allowed to air dry. A cover slide was mounted via anti-fade media.

S. aureus Xen 36 cells = assay: as above; type: cell-based; details: labeled mAb, 20 μg/mL, fixed planktonic cells
Protocol: as §6

S. aureus ATCC 29213 = assay: Passive immunization, S. aureus lethal dose challenge in a murine model; type: in vivo, Balb/C mice; details: 200 μg mAb intraperitoneally one hour before 200 million cfu via tail vein
Protocol: An in vivo study was performed to evaluate the prophylactic efficacy of TG10 against a S. aureus lethal dose challenge in a murine model of infection. TG10 and F598 were evaluated as monotherapies and as a mAb cocktail. […] The combination provided 90% survival.
Balb/C mice aged 12 weeks (n=10/group) were passively immunized with 200 μg F598, 200μ g TG10, or 100μ g F598+100μ g TG10 in 100 μl PBS intraperitoneally. 100 μl PBS was injected intraperitoneally in the negative control group (n=5). One hour later, 200 million cfu S. aureus ATCC 29213 cells were administrated via tail vein. Mice condition was monitored. A mouse unable to move or which lost more than 20% body mass was euthanized. Survival was better in all three groups when compared to the PBS control arm.

[8] = system: PNAG conjugates on the array (dPNAG, PNAG and intermediate levels of deacetylation); assay: Neoglycoprotein (glycan) microarray binding, 816-component array; details: for PNAG Binding on Array: ability to bind both dPNAG and PNAG and intermediate levels of deacetylation
[9] = system: PNAG conjugates on the array (dPNAG, PNAG and intermediate levels of deacetylation); assay: as above; details: single point mutations
Protocol: as §3, §4

Molecule: CC(=O)N[C@H]1C(O)O[C@H](CO)[C@H](O)[C@@H]1O (stereo partly shown) [N-acetyl galactosamine]
- reduction of signal intensity of TG10 binding to PNAG 0 (TG10 binding to PNAG 0; 10 mM monosaccharide): unchanged

Molecule: CC(=O)N[C@H]1C(O)O[C@H](CO)[C@@H](O)[C@@H]1O (stereo partly shown) [N-acetyl glucosamine]
- reduction of RFU of F598 binding with PNAG 31 ([1]; 10 mM monosaccharide): 74%
- reduction of RFU of F598 binding with PNAG 31 ([1]; 100 mM monosaccharide): 99%
- reduction of signal intensity of TG10 binding to PNAG 0 (TG10 binding to PNAG 0; 10 mM monosaccharide): 15%

Molecule: N[C@H]1C(O)O[C@H](CO)[C@H](O)[C@@H]1O (stereo partly shown) [galactosamine]
- reduction of signal intensity of TG10 binding to PNAG 0 (TG10 binding to PNAG 0; 10 mM monosaccharide): 45%

Molecule: N[C@H]1C(O)O[C@H](CO)[C@@H](O)[C@@H]1O (stereo partly shown) [glucosamine]
- reduction of signal intensity of TG10 binding to PNAG 0 (TG10 binding to PNAG 0; 10 mM monosaccharide): 94%
- reduction of signal intensity of TG10 binding to PNAG 0 (TG10 binding to PNAG 0; 100 mM monosaccharide): 100%
- IC50 [2]: 1000 to 2000 µM

B1: TG10: Antibody, HC SEQ ID NO: 3, LC SEQ ID NO: 12; primer mutations in ADI-45379 reverted to germline (antibody, V domains shown)
VH: EVQLVESGGGLVQPGGSLRLSCAVSGFPFSSYWMSWVRQAPGKGLEWVANIKEDGSEKYYVDSVKGRFTISRDNAKNSLYLQMNSLRAEDTAVYYCATDPDVGLSDSWGQGTLVTVSS
VL: EIVLTQSPGTLSLSPGDRATHSCRASQSVSRSYLAWYQQKPGQTPRLFIYGASNRATGIPDRFSGSGSGTYFTLTISRLEPEDFAVYYCQQYDSAPDTFGQGTRLEIK
modifications: TG10 Heavy Chain Variable Region; TG10 Light Chain Variable Region
notes: primer mutations in ADI-45379 reverted to germline
- Kd ([3]; PNAG 0 conjugate on the microarray): 0.0083 µM
- apparent KD ([3]; PNAG 0 conjugate on the microarray, given in mass concentration): 1.25 µg/mL
- Kd [4]: 0.0115 µM
- Kd [5]: 0.019 µM
- localization of labeled antibody within the biofilm (S. epidermidis biofilms): isolated to core cells within the microcolonies
- fluorescent microscopy of spun-down culture [6]: strong fluorescent signal
- binding to cells [7]: bound
- binding to cells (S. aureus Xen 36 cells): bound
- survival compared to the PBS control group (S. aureus ATCC 29213): increased survival
- selectivity among PNAG glycoconjugates on the array ([8]; 816-component array): excellent selectivity for the highly deacetylated PNAG conjugates PNAG 0 and PNAG 1
- PNAG Binding on Array [8]: Yes

B2: TG10 LC D116A: TG10 HC (SEQ ID NO: 3) with TG10 LC D116A (SEQ ID NO: 49) (antibody, V domains shown)
VH: B1 VH
VL: B1 VL with D97A
modifications: TG10 Heavy Chain Variable Region; Site directed mutatation of TG10 HC Variable Region
- function of TG10 variant (binding to PNAG conjugates on the array) [9]: functionally dead
- effect of single point mutation on binding between TG10 and PNAG 0 ([3]; fully deacetylated PNAG conjugate PNAG 0): completely removed binding
- PNAG Binding on Array [8]: No
